A short description of this data set: label from the status in PepcDB records.
In the case of “MADVAVLNIDSVICVNKNNDKSTPLTQLFLVLVAAESFYPTRRFVGIRVKRRQHQHLLESLVHSTAKQQGDFTKTAELATELLCQNLAVSLVSIWIFSADQGTQSLVAQFGSMALQDTYRPSLLHTVPRYLNELKNYRHIDAGNTLIDPRLTELVDSYFIPRQILSSLDVGIRINGHLEGVLCIERAQVTHHWHDSEIHLACQMADQLALTLATKHAYDKEERLSLFRCAIEQSRQMSMLINLHTEKVEYVNQAHEDITGIARDKSIGTNLRDLTFFRQHNALAEQTLAKIFRGDQAKGEVQFSRTDGSRYWLKYIVSQFITDRGNHYALVSGEENSDEHNYKAELERLAWRCGLTGLNNRSHFNRVLERTTHGLLLLVDLVAFKRFNDTYGHENGDSLLIEVGRRLKHFSEINKATEIARVGSDEFAVLLTDDNAVYDLDYFSTRLYQHLAMPILIGREQVEPKPALAVVDIASVANLFAPLTCADIAVQYAKKKKGTAIQVFNSTLLSAFKEDAQIERDLHSAIRGRQFELYYQPLRDLEQQTYIGAEALIRWHHPKKGVLYPGAFIDIAEQSGMINAIGSWVLEAACRQLNIWQHHNADLSMHVNVSARQFFSGNLYEQVWQLLTRYRLKPKTLILEITETELMGDIRHATLLCQELAELGVGLAIDDFGTGYSSMRYLKQFPISKLKIDRSFISDLTISRESQEIVSAIIAMANALNISLTAEGVETAEQEAFLAKSLCHQAQGFLYSPALREPEFAQFLLTAKQPNLIAH”, the protein production result is on record as “failed”.
The entry for “MADWTRAQSSGAVEEILDRENKRMADSLASKVTRLKSLALDIDRDTEDQNRYLDGMDSDFTSVTGLLTGSVKRFSTVARSGRDNRKLLCGMAVVLIVAFFILSYLLSRTRT” is “failed”.
On to “MAEAIFALDVGTRKVAGLVLAQGKKGYHIQAAAVVEHQQRAMLDGQIHDIPQVALAIQDVKGQLEKKLHISLKEAAVAAAGRALKTWRASATSQLSPAQEIAPQAVLALEAAAVQEAEKLLLEASEQPLAYHCVGYSVVGYNLDGHPIGNLVGQRGQSMTAEVIATFLPRVVVDSLVTALERAGLAMHSLTLEPIAASAVAVPAAMRGLNLALVDIGAGTSDIAITGQGTISGYAMVPSAGDEITEALASALILDFNTAERVKRQLSTRENLTFTDVVGQRHTLAAAELMEIIKPAVTELARQVATQIILLNGKPPQAVLLIGGGSLTPGLAAALAGQLEISPERVAVRGREVLNGISGAKNLQGPQAITPIGIAITALKREGLGLARVIVNGRPVHFLAGQQMTVTQALLAAGIPARHLYGRPGRGLGVEVNGRLTFLRGQPGEPGKILVNEAPATLETVVKAGDHIIVTPGRDGADAWGTVGDLVPELAPKTITFNGRRITLEPEIIMNGNRVDYRTPVQDQARITYNPLDTVARVLEYLGEPLDGPVLLNGQQVRPEAPIKDGDNLVTGAGATGRNINITINGRPATLRVQAGEALFTDVFNYLDFPSSPPPGRKTLVMEVNGRPAEFTTPLAEGDAVTLRWDP”, for which the protein production entry was “failed”.
Turning to “MAEASPQPGRYFCHCCSVEIVPRLPDYICPRCESGFIEELPEETRNTENGSAPSTAPTDQNRQPFENVDQHLFTLPQGYSQFAFGIFDDSFEIPTFPPGAQADDGRDPESRREREHQSRHRYGARQPRARLTARRATGRHEGVPTLEGIIQQLVNGIISPAAVPSLGLGPWGVLHSNPMDYAWGANGLDTIITQLLNQFENTGPPPADKEKIQALPTVPVTEEHVGSGLECPVCKEDYALGESVRQLPCNHLFHDSCIVPWLEQHDSCPVCRKSLTGQNTATNPPGLTGVGFSSSSSSSSSSSPSNENATSNS”, the protein production result is listed as “not failed”.
For the sequence “MAEEEVGNSQRQSEEIEAMAAIYGEEWCVIDENAKIFCIRVTDFMDDPKWTLCLQVMLPSEYPGTAPPSYQLNAPWLKGQERADLSNSLEEIYVHNMGESILYQWVEKIRDALIQKSQITEPDPDVKKKTEEVEVESEEDPILEHPPENPVKTLDLKISEETQPETEELPPVAHGVPITDRRSTFQAHVAPVVCPEQVKLVLAKLYENKKIASATHNIYAYRIFCEDKQTFLQDCEDDGETAAGGRLLHLMEILNVKNVMVVVSRWYGGILLGPDRFKHINNCARNILVEKNFTNTPDESTKNLGKKKVKKDKKKNDH”, the protein production entry was “failed”.
The entry for “MAEFPASLLILNGKSTDNLPLREAIMLLREEGMTIHVRVTWEKGDAARYVEEARKFGVATVIAGGGDGTINEVSTALIQCEGDDIPALGILPLGTANDFATSVGIPEALDKALKLAIAGDAIAIDMAQVNKQTCFINMATGGFGTRITTETPEKLKAALGSVSYIIHGLMRMDTLQPDRCEIRGENFHWQGDALVIGIGNGRQAGGGQQLCPNALINDGLLQLRIFTGDEILPALVSTLKSDEDNPNIIEGASSWFDIQAPHDITFNLDGEPLSGQNFHIEILPAALRCRLPPDCPLLR” is “not failed”.

Values taken from a protein production outcome set (Wang et al. 2014).
